Two molecules from paper PMC6224492 (2018) can be followed below.

The star is where a group is joined. FITC = O=C1OC2(c3ccc(O)cc3Oc3cc(O)ccc32)c2ccc(NC(=S)*)cc21; Ahx = NCCCCCC(=O)O

The target of test [1] is full-length PPARγ (isoform 2), delipidated, no ligand (human) (UniProt P37231). Kind of test: FP.
In test [2] the target is T1, full-length PPARγ with GW1929 (Homo sapiens).
T1 chain: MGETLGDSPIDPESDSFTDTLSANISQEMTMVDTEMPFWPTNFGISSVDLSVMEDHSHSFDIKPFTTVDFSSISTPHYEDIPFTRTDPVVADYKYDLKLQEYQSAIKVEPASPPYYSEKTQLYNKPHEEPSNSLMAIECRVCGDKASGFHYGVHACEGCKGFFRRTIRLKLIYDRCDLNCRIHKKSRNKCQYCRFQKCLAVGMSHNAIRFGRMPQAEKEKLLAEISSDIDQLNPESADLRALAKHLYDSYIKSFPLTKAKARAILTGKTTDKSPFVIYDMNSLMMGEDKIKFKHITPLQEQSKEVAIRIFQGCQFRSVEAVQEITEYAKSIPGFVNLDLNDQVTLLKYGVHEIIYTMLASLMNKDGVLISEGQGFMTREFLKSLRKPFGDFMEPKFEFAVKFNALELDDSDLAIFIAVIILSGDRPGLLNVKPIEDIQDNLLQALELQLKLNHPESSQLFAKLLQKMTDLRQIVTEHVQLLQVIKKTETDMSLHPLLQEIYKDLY
Kind of test: FP; GW1929.

Take “FITC-labeled NCoR1 corepressor peptide (residues 2256-2278)”: in test [1], the Kd was 7.4 µM.
In turn, {FITC-Ahx}-DPASNLGLEDIIRKALMGSFDDK-NH2 [FITC-labeled NCoR1 corepressor peptide (residues 2256-2278)] came in with a Kd in test [2] of 9 µM.
